According to US11285283B2, “Methods for generating and delivering droplets to the pulmonary system using a droplet delivery device” (PNEUMA RESPIRATORY, INC., priority 2016, dated 2022):
“And” between values parts separate entries of the source, which are not always exact repeats. Identical values can stand only once.

What was measured:
[1] = Enbrel stability after aerosol generation, size exclusion chromatography; format: physicochemical; details: for Peak 1 Peak Area % / Peak 2 Peak Area % / Peak 3 Peak Area % / Peak 4 Peak Area % / Peak 5 Peak Area %: replicate samples
Excerpt: Alternately, to determine the stability of active agent after droplet generation, the generated stream of droplets including the active agent may be collected and […] may be employed to monitor for any changes in large molecule aggregation and protein fragment content. Soluble protein aggregates and protein fragment content may be calculated by comparing respective peak area under the SEC-HPLC curve of dispensed protein solutions with controls (solutions remaining in the device reservoir). Drug solutions for testing include Enbrel, (ENBREL® single-use prefilled syringes in 25 mg (0.51 mL of a 50 mg/mL solution of etanercept), and insulin, (Humalog, 200 units/ml, 3 ml […] is performed with a YarraTM 3 μm SEC-2000 LC column 300×7.8 mm, SecurityGuard cartridge kit and SecurityGuard cartridges GFC-2000, 4×3 mm ID. Fifty microliters of Enbrel from the syringe (ENBREL® single-use prefilled syringes in 25 mg/0.51 mL of a 50 mg/mL solution of etanercept) is diluted (4:1) (4 parts, 200 mcl of the mobile phase buffer solution to 1 part, 50 mcl Enbrel from syringe). Fifty microliter of the diluted Enbrel is injected and separation was performed at a flow rate of 1.0 ml/min. The mobile phase buffer system included a PHOS. BUFF. SALINE. […] UV detection is performed at 280 nm. […] An ampule/cartridge is filled with […] of Enbrel® (50 mg/ml) diluted 4:1 (10 mg/ml)(4 parts (200 mcl) of PBS and 0.025% NaN3 and 1 part (50 mcl of Enbrel solution from the syringe). After 20 actuations and aerosolization, about 150 mcl of the aerosolized Enbrel solution is recovered and collected in the polypropylene tube located below the ejector mechanism. The control consists of the diluted Enbrel solution, 50 mcl of which is injected into the SEC column for analysis.

[2] = Gel electrophoresis of active agent after droplet generation; format: physicochemical; details: after droplet generation with the device
Excerpt: To determine the stability of active agent after droplet generation, the generated stream of droplets including the active agent is collected and the molecular weight of the active agent is verified using gel electrophoresis.

[3] = Anderson Cascade Impactor testing of droplet delivery device with Albuterol sulfate (Example B); format: physicochemical
Protocol: Droplet size distribution and related functionality was evaluated for exemplary droplet delivery devices of the disclosure, including Anderson Cascade Impactor testing, total drug mass output rates, total drug respirable mass, delivery efficiencies and reproducibility.
The study was designed to evaluate device performance of a single Pneuma™ inhaler. A series of three (3) individual tests were conducted with a new disposable drug cartridge for each test. The testing platform utilizes an eight-stage nonviable Anderson Cascade Impactor (Thermo Fisher Scientific; Waltham, Mass.) equipped with a calibrated AALBORG model GFM47 mass flow meter (AALBORG Instruments and Controls; Orangeburg, N.Y.) for flow rate measurement.
At the conclusion of each test, the mouthpiece was rinsed with mobile phase and collected for HPLC analysis to determine the mass fraction of non-respirable aerosolized drug captured in the mouthpiece via inertial filtering. Following each test, impactor stage samples were extracted and recovered in solvent and analyzed for the active pharmaceutical ingredient (API) using a Dionex Ultimate 3000 nano-HPLC with UV detection (Thermo Scientific, Sunnyvale, Calif.).
The cascade impactor testing procedure involved fitting the mouthpiece into the Impactor USP throat with a mouthpiece connection seal. The vacuum pump supplying sample air flow to the cascade impactor was turned on and the pump control valves adjusted to supply 28.3 L/min total flow through the impactor and inhaler body during aerosol tests.
The device was connected to the impactor USB throat, turned on, and actuated ten (10) times for each test. At the conclusion of the test period, the device, impactor, and dilution air sources were turned off. The i mouthpiece was rinsed in order to extract drug, and all stages of the cascade impactor were rinsed with a quantity of appropriate solvent (HPLC mobile phase). Extracted samples were placed in labeled and sterile HPLC vials, capped, and analyzed for drug content via HPLC with UV detection. The mouthpiece was extracted of residual drug and analyzed for drug content via HPLC to measure mouthpiece drug deposition in relation to the total collected on the impactor stages.
All system flow rates and impactor sample flows were monitored throughout each test period. Following each test, the impactor slides were placed in labeled sterile Petri dishes, and impactor stages were extracted of drug using 2 ml of mobile phase applied with a calibrated micropipette. All extracted samples from the mouthpiece and impactor were placed in labeled sterile amber HPLC sample vials, and stored refrigerated at approximately 2° C. until HPLC analysis.
Impactor collection stages for all tests were rinsed with DI water and ethanol, and air dried prior to each inhaler test trial to avoid contamination. A new inhaler drug cartridge was used for each of the three individual tests.
All drug content analysis was performed using a Dionex Ultimate 3000 nano-HPLC equipped with a Dionex UVD-3000 multi-wavelength UV/VIS Detector using a micro flow cell (75 μm×10 mm path length, total analytical volume 44.2 nl). […] Total HPLC run time was 6 minutes per sample with approximately 5 minutes flush between each sample. Sample injection was performed with a 1 μl sample loop in full loop injection mode.
Buffer formulation contains reverseosmosis filtered deionized water with 1.13 gr of sodium 1-hexanesulfonate (Alfa Aesar) in 1200 ml of water, with 2 ml glacial acetic acid (Acros Organics) added. The mobile phase solution was mixed and filtered through a 0.45 μm filter membrane. The final mobile phase is a 60:40 dilution of Buffer: MEOH.

[4] = Insulin stability after aerosol generation, size exclusion chromatography; format: physicochemical
Excerpt: Alternately, to determine the stability of active agent after droplet generation, the generated stream of droplets including the active agent may be collected and SEC-HPLIC may be employed to monitor for any changes in large molecule aggregation and protein fragment content. Soluble protein aggregates and protein fragment content may be calculated by comparing respective peak area under the SEC-HPLC curve of dispensed protein solutions with controls (solutions remaining in the device reservoir).
Drug solutions for testing include Enbrel, (ENBREL® single-use prefilled syringes in 25 mg (0.51 mL of a 50 mg/mL solution of etanercept), and insulin, (Humalog, 200 units/ml, 3 ml kwikpens)
To calculate and compare effects of droplet generation through an ejector mechanism of the disclosure, the total area under the curve of the UV signal at 280 nm versus elution time for controls is compared with the aerosolized samples, which is set to 100%.
Aerosol collection and SEC is performed in a similar fashion as for the Enbrel analysis and aerosol collection.
Fifty microliters of the collected aerosol spray is injected onto the SEC column for analysis, while 50 mcl of the Kwikpen insulin solution is injected onto the SEC column for control samples.

[5] = tested on: patients with cystic fibrosis; details: cited from earlier work
[6] = aerosolized, average of S1 and S2
[7] = Albuterol 0.5%, 28.3 lpm, 10 actuations

etanercept [Enbrel]
dose forming molecular fragments with elution times of 13 and 25 minutes ([1]; aerosolized with test device): 4.6% | Peak 1 Peak Area % ([1]; aerosolized with test device, 20 actuations): 3.476% and 2.796% | Peak 2 Peak Area % ([1]; aerosolized with test device): 92.112% and 90.789% | Peak 3 Peak Area % ([1]; aerosolized with test device): 0.361% and 0.424% | Peak 4 Peak Area % ([1]; aerosolized with test device, fragment, elution about 13 min): 0.352% and 0.357% | Peak 5 Peak Area % ([1]; aerosolized with test device, fragment, elution about 25 min): 3.428% and 5.130% and 5.123% | Peak 4 Peak Area %, Avg. [1, 6]: 0.3545 | Peak 5 Peak Area %, Avg. [1, 6]: 4.2755 | Peak 1 Peak Area % ([1]; control, Enbrel diluted 4:1 (10 mg/ml), not aerosolized): 2.428% and 3.041% | Peak 2 Peak Area % ([1]; control, not aerosolized): 96.676% and 95.909% | Peak 3 Peak Area % ([1]; control, not aerosolized): 0.373% and 0.351% | Peak 4 Peak Area % ([1]; control, not aerosolized): 0% | Peak 5 Peak Area % ([1]; control, not aerosolized): 0% | change in electrophoretic mobility / molecular weight of post-aerosol active agent versus control [2]: negligible change

bevacizumab
change in electrophoretic mobility / molecular weight of post-aerosol active agent versus control [2]: negligible change

Albuterol sulfate
droplets of an average diameter of less than about 5 μm [3, 7]: over 75% | droplets with an average diameter of less than about 4 μm [3, 7]: over 70% | Cum. % < ([3]; FILTER): 0.00% | Cum. % > ([3]; FILTER): 100.00% | Cum. % < ([3]; Pre-separator, cut diam. 10 μm): 100.00% | Cum. % > ([3]; Pre-separator, cut diam. 10 μm): 0.00%

Insulin: insulin, Humalog, 200 units/ml, 3 ml kwikpens
ejected dose forming a fragment which elutes at ~25 minutes ([4]; aerosolized with test device): 2.5% | Peak 1 Peak Area % ([4]; aerosolized with test device, 20 actuations, replicate samples): 27.881% and 28.721% | Peak 2 Peak Area % ([4]; aerosolized with test device, replicate samples): 69.780% and 67.807% | Peak 3 Peak Area % ([4]; aerosolized with test device, replicate samples, fragment, elution ~25 min): 2.184% and 2.797% | Peak 3 Peak Area %, Avg. [4, 6]: 2.4905 | Peak 1 Peak Area % ([4]; control, Kwikpen solution 200 U/ml, not aerosolized): 29.926% | Peak 2 Peak Area % ([4]; control, not aerosolized): 69.630% | Peak 3 Peak Area % ([4]; control, not aerosolized): 0%

NC[C@H]1O[C@H](O[C@H]2[C@H](O)[C@@H](O[C@H]3O[C@H](CO)[C@@H](O)[C@H](N)[C@H]3O)[C@H](N)C[C@@H]2N)[C@H](N)C[C@@H]1O [tobramycin]
pulmonary function after administration by inhalation ([5]; inhalation, without severe side effects to kidney functions): significantly improves pulmonary function | serum levels after intravenous administration ([5]; intravenous administration): toxic to the kidneys

adalimumab
change in electrophoretic mobility / molecular weight of post-aerosol active agent versus control [2]: negligible change
